From publication PMC9774334

What was measured:
purified protein [1] = substrate: C[C@@H]1O[C@@H](Oc2ccc([N+](=O)[O-])cc2)[C@@H](O)[C@H](O)[C@@H]1O; test: purified protein; conditions: McIlvaine buffer pH 5.5, 35 °C
purified protein [2] = substrate: O=[N+]([O-])c1ccc(O[C@@H]2O[C@@H](CO)[C@H](O)[C@@H](O)[C@@H]2O)cc1; test: purified protein; conditions: McIlvaine buffer pH 5.5, 35 °C

| Protein | Km (purified protein [1]) [µM] | kcat (purified protein [1]) [s⁻¹] | kcat/Km (purified protein [1]) [M⁻¹ s⁻¹] | Km (purified protein [2]) [µM] | kcat (purified protein [2]) [s⁻¹] | kcat/Km (purified protein [2]) [M⁻¹ s⁻¹] |
| --- | --- | --- | --- | --- | --- | --- |
| ClAgl29B (Cecembia lonarensis LW9) (protein) QENKEKDRTPSSKHLTDNILQPKRSSDFMAFKYEYSTVDLYREFSESIMDKARSEVEILESVNRQGRYKPNVESLKLHEVPEWFEDAKLGIFLDWGPWSVPGYAPLKGAEASTGGSYPDWYEFLMDNLYKEYHDEVWGADFRRDDFLPLLTGENFNSEEYMLLAVNSGAKYFVPFTKHHAGWTMWESEFTKRNAVEMGPGRDIYKELIEAGKKYDMKMGFYFSVSEWEYPVIVDQNLSQWDPVKNLAIFQDALGQIPRATPLASYFPALHDRMISGKIPVKDYFADYMIPSFKEAVDKYDPDLVWYDGGWGSPVSISRTMETSAYFYNQAEGKKDVVINNRAGSSLSEDDLIKVRDLMDSGKRDEAMKIYLSGQQLGDYGTPEFTIGDVDIQSKWEVCRSISPAFGYNWQDDEASSLSGEELIKLFVDIVANNGNLLLVISPDGSGKLPDIQKDRLLELGDWMKVNAESIHNTRPWKVQKENDKFFTKSKDGKSLFVHCTNWPGENLIINTPIEEGIKGIKLLGSDINLQFTKASNGNLEIPIPKDFQNNPSLISKYVWTFKIDLN | 240 ± 11 | 0.0844 ± 0.0019 | 352 ± 7 | 1790 ± 180 | 7.76 ± 0.41 | 4340 ± 220 |
| ClAgl29A (Cecembia lonarensis LW9) (protein) QVQYNPEKPARPEDHKPFFYKYNTRQLYEKFSDDLMQRAANDRKEIEKINQLGKYKPKKQSLDEHEVPEWFRDAKLGIFLDWGPWSVPGYAPPGSEGDTGGSYPDWYEFLMDFTYKAYHDSIWGEDFRRDDFLPLLHGNNFDSEEYAELAVQAGAKYMVPFARHHAGWTMWESKYTFRNAVEMGPKRDILKELVEASRKRDLKFGFYFSIAEWEYPVITKERVSQWDPYEDMAIFHDGMGLIPRPVPLASYFPARHDRMISGKIPVKDYFGDYMMPLFKEGVDLFDPDLVWYDGGWGTPANSSRVPELSAYFYNQAEGRKEVVINNRAGAYLDDSNLLKFNEVLKSGEHDKLLELYMKAEQIGDYLTPEYSIGNVDINEPWEVCRSISPAFGFNWTDNEENSLSSKELVKMFVGIVANNGNLLLVINPDGSGKLSNVQKDRLLDLGQWLKVNGEGIYSTRPWEIQESEGNFFTKSKNGEFIYIHILDKEKTTIEVPNLNPKNKGAISILGSKEKVLWENSGPITRITIPESFKDERNWPNKYGFTLKVAVK | 279 ± 5 | 0.0658 ± 0.0008 | 236 ± 5 | 2010 ± 260 | 2 ± 0.11 | 1000 ± 80 |
